Consider four molecules from patent publication US20200384061A1 (JCR PHARMACEUTICALS, published 2020).

The Kd is the equilibrium constant for the complex coming apart. The term koff denotes a measure of how fast the partners let go of each other. What is called kon is a measure of how fast the partners come together.

Where two headings read alike, the source gives them in different places.

Assay [1] has as its target T1, recombinant monkey TfR (r monkey TfR, Sino Biological Inc.), extracellular region of cynomolgus monkey TfR … (cynomolgus monkey (Macaca fascicularis), UniProt Q5RDH6 89-760 (Pongo abelii entry)).
T1 construct: not shown: histidine tag added to the N-terminus
T1 chain: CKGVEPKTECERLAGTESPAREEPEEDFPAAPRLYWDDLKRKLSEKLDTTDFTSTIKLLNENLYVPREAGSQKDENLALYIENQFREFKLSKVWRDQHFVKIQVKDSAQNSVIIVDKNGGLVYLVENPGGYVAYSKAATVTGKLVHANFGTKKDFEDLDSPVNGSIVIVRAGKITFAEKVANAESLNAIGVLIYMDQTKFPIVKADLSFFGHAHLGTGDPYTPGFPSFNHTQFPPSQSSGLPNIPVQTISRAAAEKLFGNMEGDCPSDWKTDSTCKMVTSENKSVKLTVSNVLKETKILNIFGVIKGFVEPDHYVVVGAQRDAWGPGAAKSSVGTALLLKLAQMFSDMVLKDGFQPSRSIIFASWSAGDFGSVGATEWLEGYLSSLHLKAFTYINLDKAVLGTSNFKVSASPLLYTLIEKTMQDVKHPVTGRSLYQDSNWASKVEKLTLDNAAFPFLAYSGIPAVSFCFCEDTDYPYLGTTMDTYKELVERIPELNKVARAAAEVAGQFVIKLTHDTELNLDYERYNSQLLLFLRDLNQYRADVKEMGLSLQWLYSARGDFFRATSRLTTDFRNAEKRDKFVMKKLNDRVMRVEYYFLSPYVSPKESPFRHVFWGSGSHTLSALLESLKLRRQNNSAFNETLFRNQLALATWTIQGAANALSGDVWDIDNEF
Briefly: BLI (OctetRED96).

Assay [2] concerns the target human TrkB (GenBank Acc. No. NP_001018074.1) expressed in CHO cells (CHO-TrkB cells) (human, UniProt Q16620 32-822). Briefly: cell-based or functional assay.
The target of assay [3] is T2, recombinant human TfR (r human TfR, Sino Biological Inc.), extracellular region of hTfR with N-terminal … (human, UniProt P02786 89-760).
T2 construct: also called r human TfR-ECD (Histag); recombinant hTfR; not shown: histidine tag added to the N-terminus
Briefly: BLI (OctetRED96); fusion protein captured via biotin-labeled anti-human BDNF antibody on SA biosensor, TfR in solution. The procedure:
(§1) Affinities of the hBDNF-anti-hTfR antibody (3N) 1 prepared in Example 22, to human TfR and to monkey TfR were measured. The measurement was generally performed by the following method. The biotin-labeled rabbit anti-human BDNF polyclonal antibodies (anti-human BDNF antibodies: PeproTech Corporation) was diluted with HBS-P+(1% BSA) (10 mM HEPES containing 150 mM NaCl, 50 μM EDTA, 0.05% Surfactant P20, and 1% BSA) to prepare the 15 μg/mL of solution, and the solution was designated as ligand solution 1. The purified product of an anti-hTfR antibody fusion BDNF (hBDNF-anti-hTfR antibody (3N) 1) was diluted with HBS-P+(1% BSA), and the solution was designated as ligand solution 2. And, as the reference control sample, the purified product of the hBDNF-anti-hTfR antibody (3) 1 obtained in Example 15-3 was also diluted with HBS-P+(1% BSA) to prepare ligand solution 3. r human TfR and r monkey TfR were respectively two fold serial diluted with HBS-P+(1% BSA) to prepare seven different concentrations of 0.78125 to 50 nM ([…] to 3.74 μg/mL). These TfR solution were used as TfR sample solutions.
(§2) The OctetRED96 was run under the condition shown in the following Table 15-3 to immobilize the anti-human BDNF antibody onto the sensor. Subsequently, after the OctetRED96 was run under the condition shown in the following Table 15-4 to obtain data, binding interaction curve was fitted to a 1:1 binding model or to a 2:1 binding model using the analysis software attached to the OctetRED96, the association rate constant (kon) and the dissociation rate constant (koff) of the anti-hTfR antibody fusion BDNF to r human TfR, and to r monkey TfR were measured, and the dissociation constant (KD) were calculated. The measurement was performed at 25° C. to 30° C.

Assay [4] addresses T1, recombinant monkey TfR (r monkey TfR, …). Described as above. As for the experimental part:
as §1, §2

The target in assay [5] is TrkB receptor on rat primary cultured neurons (corpus striatum of rat embryo) (rat, UniProt Q63604 32-821). Briefly: cell-based or functional assay.
Assay [6] addresses T3, human serum albumin preparation (HSA) (blood donation albumin 25-Nichiyaku, Nihon Pharmaceutical Co., Ltd.) (human, UniProt P02768 25-609).
T3 construct: mature
Briefly: BLI (OctetRED96); fusion protein captured via biotin-labeled anti-human BDNF antibody on SA biosensor, HSA in solution. As for the experimental part: (§3) Affinities of a hBDNF-anti-hTfR antibody (3N) ABD to human TfR, monkey TfR, and human serum albumin (HSA) were measured on OctetRED96 (ForteBio Corporation, a division of Pall Corporation) which is a system for biomolecular interaction analysis utilizing biolayer interferometry (BLI), as same as Example 25. The measurement was generally performed by operation manual attached to the OctetRED96.
(§4) The biotin-labeled rabbit anti-human BDNF polyclonal antibodies (anti-human BDNF antibody: PeproTech Corporation) was diluted with HBS-P+(1% BSA) (10 mM HEPES containing 150 mM NaCl, 50 μM EDTA, 0.05% Surfactant P20, and 1% BSA) to prepare 25 μg/mL of solution, and the solution was designated as ligand solution 1. A purified product of an hBDNF-anti-hTfR antibody (3N) ABD was diluted with HBS-P+, and the solution was designated as ligand solution 2. r human TfR and r monkey TfR were respectively two-fold serial diluted with HBS-P+ to prepare seven-different concentration of 0.78125 to 50 nM (0.0585 to 3.74 μg/mL). These TfR solution were designated as a TfR sample solution. The r human TfR and the r monkey TfR, those described in Example 7 were used. And, human serum albumin preparation (HSA) (blood donation albumin 25-Nichiyaku, Nihon Pharmaceutical Co., Ltd.) was two-fold serial diluted with HBS-P+ to prepare solution of seven-different concentration of 3.13 to 200 nM (0.208 to 13.3 μg/mL). The HSA solution were designated as an HSA sample solution.
The OctetRED96 was run under the condition shown in the following Table 15-3 described in Example 25 to immobilize the anti-human BDNF antibody onto the sensor. Subsequently, after the OctetRED96 was run under the condition shown in Table 16-2 to obtain data, binding interaction curve was fitted to a 1:1 binding model using the analysis software attached to the OctetRED96, the association rate constant (kon) and the dissociation rate constant (koff) of the hBDNF-anti-hTfR antibody (3N) ABD, to r human TfR, r monkey TfR, and HSA were measured, and a dissociation constant (KD) were calculated. […]

In assay [7] the target is T2, recombinant human TfR (r human TfR, …). Briefly: BLI (OctetRED96); fusion protein captured via biotin-labeled anti-human BDNF antibody on SA biosensor, TfR in solution. The procedure:
as §3, §4
(§5) The OctetRED96 was run under the condition shown in the following Table 15-3 described in Example 25 to immobilize the anti-human BDNF antibody onto the sensor. Subsequently, after the OctetRED96 was run under the condition shown in Table 16-2 to obtain data, binding interaction curve was fitted to a 1:1 binding model using the analysis software attached to the OctetRED96, the association rate constant (kon) and the dissociation rate constant (koff) of the hBDNF-anti-hTfR antibody (3N) ABD, to r human TfR, r monkey TfR, and HSA were measured, and a dissociation constant (KD) were calculated. The measurement was performed at 25° C. to 30° C.
The source holds these as a separate data set.

Assay [8] concerns the target T1, recombinant monkey TfR (r monkey TfR, …). Described as above. As for the experimental part:
as §3, §4, §5

human TrkB (GenBank Acc. No. NP_001018074.1) expressed in CHO cells (CHO-TrkB cells), sequence (Q16620 32-822): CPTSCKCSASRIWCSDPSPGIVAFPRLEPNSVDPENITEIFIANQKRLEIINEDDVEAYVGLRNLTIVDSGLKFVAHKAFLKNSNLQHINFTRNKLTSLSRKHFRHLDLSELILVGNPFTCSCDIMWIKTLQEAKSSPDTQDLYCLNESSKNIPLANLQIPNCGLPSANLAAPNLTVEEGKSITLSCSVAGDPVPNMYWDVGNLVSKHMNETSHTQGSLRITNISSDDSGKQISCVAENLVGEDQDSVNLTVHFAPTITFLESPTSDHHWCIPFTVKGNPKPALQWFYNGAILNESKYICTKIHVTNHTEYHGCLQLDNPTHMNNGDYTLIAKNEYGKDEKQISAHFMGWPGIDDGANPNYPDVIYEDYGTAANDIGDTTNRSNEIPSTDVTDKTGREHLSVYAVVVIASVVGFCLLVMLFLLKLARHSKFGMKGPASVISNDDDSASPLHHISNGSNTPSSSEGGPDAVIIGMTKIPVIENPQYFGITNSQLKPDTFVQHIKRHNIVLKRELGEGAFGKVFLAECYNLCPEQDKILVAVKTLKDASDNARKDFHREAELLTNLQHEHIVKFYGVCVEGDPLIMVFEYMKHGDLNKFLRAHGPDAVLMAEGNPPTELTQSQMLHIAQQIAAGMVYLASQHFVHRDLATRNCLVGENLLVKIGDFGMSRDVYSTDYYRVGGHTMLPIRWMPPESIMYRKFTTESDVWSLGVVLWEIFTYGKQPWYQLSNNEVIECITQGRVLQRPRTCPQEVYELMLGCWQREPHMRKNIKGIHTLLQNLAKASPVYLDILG
T3 sequence (P02768 25-609): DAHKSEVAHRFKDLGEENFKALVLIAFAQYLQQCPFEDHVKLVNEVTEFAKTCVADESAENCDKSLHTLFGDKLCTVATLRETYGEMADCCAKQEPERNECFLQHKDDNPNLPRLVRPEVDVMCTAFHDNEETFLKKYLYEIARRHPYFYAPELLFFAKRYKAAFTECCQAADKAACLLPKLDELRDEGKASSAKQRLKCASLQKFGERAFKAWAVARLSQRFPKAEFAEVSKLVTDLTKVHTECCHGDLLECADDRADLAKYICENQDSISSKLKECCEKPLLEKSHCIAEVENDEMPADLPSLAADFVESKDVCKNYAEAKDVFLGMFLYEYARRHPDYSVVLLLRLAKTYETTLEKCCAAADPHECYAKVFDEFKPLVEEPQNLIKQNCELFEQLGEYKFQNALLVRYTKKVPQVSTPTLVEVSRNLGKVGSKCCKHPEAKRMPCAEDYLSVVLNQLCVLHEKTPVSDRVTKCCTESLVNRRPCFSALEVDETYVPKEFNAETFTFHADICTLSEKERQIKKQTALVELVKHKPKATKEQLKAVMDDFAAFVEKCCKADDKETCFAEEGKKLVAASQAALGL
TrkB receptor on rat primary cultured neurons (corpus striatum of rat embryo), sequence (Q63604 32-821): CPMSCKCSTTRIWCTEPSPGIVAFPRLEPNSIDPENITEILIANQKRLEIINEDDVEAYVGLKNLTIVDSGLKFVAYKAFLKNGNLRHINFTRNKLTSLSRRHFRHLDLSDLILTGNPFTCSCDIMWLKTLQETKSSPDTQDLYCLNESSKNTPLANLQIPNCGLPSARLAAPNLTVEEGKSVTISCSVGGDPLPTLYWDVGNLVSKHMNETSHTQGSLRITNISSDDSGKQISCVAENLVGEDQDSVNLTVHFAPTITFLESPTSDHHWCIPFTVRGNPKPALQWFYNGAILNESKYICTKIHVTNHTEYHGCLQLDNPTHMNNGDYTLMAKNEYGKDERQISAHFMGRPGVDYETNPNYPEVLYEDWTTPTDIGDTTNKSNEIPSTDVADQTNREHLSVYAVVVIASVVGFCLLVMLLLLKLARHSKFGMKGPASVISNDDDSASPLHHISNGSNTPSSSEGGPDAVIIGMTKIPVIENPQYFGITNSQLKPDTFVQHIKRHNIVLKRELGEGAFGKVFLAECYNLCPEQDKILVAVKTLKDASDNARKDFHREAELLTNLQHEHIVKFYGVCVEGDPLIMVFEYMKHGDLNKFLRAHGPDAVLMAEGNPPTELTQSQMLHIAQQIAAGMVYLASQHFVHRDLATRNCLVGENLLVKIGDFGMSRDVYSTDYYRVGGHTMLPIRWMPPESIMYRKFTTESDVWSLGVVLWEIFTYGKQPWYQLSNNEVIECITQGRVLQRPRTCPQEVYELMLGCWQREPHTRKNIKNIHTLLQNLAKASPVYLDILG

B1: humanized anti-hTfR antibody No. 3N (antibody, human IgG1, kappa, V domains shown)
VH: EVQLVQSGAEVKKPGESLKISCKGSGYSFMNYWLGWVRQMPGKGLEWMGDIYPGGDYPTYSEKFKVQVTISADKSISTAYLQLSSLKASDTAMYYCARSGNYDEVAYWGQGTLVTVSS
VL: DIVMTQTPLSLSVTPGQPASISCRSSQSLVHSNGNTYLHWYLQKPGQSPQLLIYKVSNRFSGVPDRFSGSGSGTDFTLKISRVEAEDVGVYYCSQSTHVPWTFGQGTKVEIKR
notes: IgG1; Same light chain as humanized No. 3; also called Humanized anti-hTfR antibody 3N
With B1, in assay [1], the “KD relative to that of the humanized anti-hTfR antibody No. 3” value is around 0.033 fold and the “affinity relative to that of the humanized anti-hTfR antibody No. 3” value is around 30 fold.

B2: hBDNF-anti-hTfR antibody (3) 1 (other)
heavy: HSDPARRGELSVCDSISEWVTAADKKTAVDMSGGTVTVLEKVPVSKGQLKQYFYETKCNPMGYTKEGCRGIDKRHWNSQCRTTQSYVRALTMDSKKRIGWRFIRIDTSCVCTLTIKRGRGSGGGGSGGGGSGGGGSGGGGSGGGGSEVQLVQSGAEVKKPGESLKISCKGSGYSFTNYWLGWVRQMPGKGLEWMGDIYPGGDYPTYSEKFKVQVTISADKSISTAYLQWSSLKASDTAMYYCARSGNYDEVAYWGQGTLVTVSSASTKGPSVFPLAPSSKSTSGGTAALGCLVKDYFPEPVTVSWNSGALTSGVHTFPAVLQSSGLYSLSSVVTVPSSSLGTQTYICNVNHKPSNTKVDKKVEPKSCDKTHT
light: DIVMTQTPLSLSVTPGQPASISCRSSQSLVHSNGNTYLHWYLQKPGQSPQLLIYKVSNRFSGVPDRFSGSGSGTDFTLKISRVEAEDVGVYYCSQSTHVPWTFGQGTKVEIKRTVAAPSVFIFPPSDEQLKSGTASVVCLLNNFYPREAKVQWKVDNALQSGNSQESVTEQDSKDSTYSLSSTLTLSKADYEKHKVYACEVTHQGLSSPVTKSFNRGEC
Regarding B2, the “BDNF activity (TrkB agonistic: EC50, nmol/L)” value (shortened to “BDNF activity”) in assay [2] was determined as 0.16 nmol/L. For the same molecule, the Kd was found to be 0.251 nM in assay [3] and 39.4 nM in assay [4].

B3: hBDNF-anti-hTfR antibody (3N) ABD (other)
heavy: HSDPARRGELSVCDSISEWVTAADKKTAVDMSGGTVTVLEKVPVSKGQLKQYFYETKCNPMGYTKEGCRGIDKRHWNSQCRTTQSYVRALTMDSKKRIGWRFIRIDTSCVCTLTIKRGRGGGGSGGGGSGGGGSGGGGSGGGGSEVQLVQSGAEVKKPGESLKISCKGSGYSFMNYWLGWVRQMPGKGLEWMGDIYPGGDYPTYSEKFKVQVTISADKSISTAYLQLSSLKASDTAMYYCARSGNYDEVAYWGQGTLVTVSSASTKGPSVFPLAPSSKSTSGGTAALGCLVKDYFPEPVTVSWNSGALTSGVHTFPAVLQSSGLYSLSSVVTVPSSSLGTQTYICNVNHKPSNTKVDKKVGGGGSGGGGSGGGGSLAEAKVLALRELDKYGVSDYYKDLIDKAKTVEGVKALIDEILAALP
light: DIVMTQTPLSLSVTPGQPASISCRSSQSLVHSNGNTYLHWYLQKPGQSPQLLIYKVSNRFSGVPDRFSGSGSGTDFTLKISRVEAEDVGVYYCSQSTHVPWTFGQGTKVEIKRTVAAPSVFIFPPSDEQLKSGTASVVCLLNNFYPREAKVQWKVDNALQSGNSQESVTEQDSKDSTYSLSSTLTLSKADYEKHKVYACEVTHQGLSSPVTKSFNRGEC
notes: BDNF-Fab-ABD fusion
For the molecule B3, the “Erk phosphorylation activity (EC50, nmol/L)” value in assay [5] turned out to be 0.02 nmol/L. The “BDNF activity” value in assay [2] was 0.3 nmol/L. Further, in assay [6], the Kd amounted to 13.5 nM, the dissociation rate constant (koff) is 0.000829 s⁻¹ and the kon amounted to 61300 M⁻¹ s⁻¹. Moreover, in assay [7], the Kd came out at 0.0566 nM, the off-rate (koff) was found to be 4e-05 s⁻¹ and the on-rate (kon) came to 707000 M⁻¹ s⁻¹. Moreover, in assay [8], the dissociation constant Kd came to 0.626 nM, the off-rate constant (koff) came out at 0.000145 s⁻¹ and the kon was determined as 231000 M⁻¹ s⁻¹.

B4: hBDNF-anti-hTfR antibody (3N) 1 (other)
heavy: HSDPARRGELSVCDSISEWVTAADKKTAVDMSGGTVTVLEKVPVSKGQLKQYFYETKCNPMGYTKEGCRGIDKRHWNSQCRTTQSYVRALTMDSKKRIGWRFIRIDTSCVCTLTIKRGRGGGGSGGGGSGGGGSGGGGSGGGGSEVQLVQSGAEVKKPGESLKISCKGSGYSFMNYWLGWVRQMPGKGLEWMGDIYPGGDYPTYSEKFKVQVTISADKSISTAYLQLSSLKASDTAMYYCARSGNYDEVAYWGQGTLVTVSSASTKGPSVFPLAPSSKSTSGGTAALGCLVKDYFPEPVTVSWNSGALTSGVHTFPAVLQSSGLYSLSSVVTVPSSSLGTQTYICNVNHKPSNTKVDKKVEPKSCDKTHT
light: DIVMTQTPLSLSVTPGQPASISCRSSQSLVHSNGNTYLHWYLQKPGQSPQLLIYKVSNRFSGVPDRFSGSGSGTDFTLKISRVEAEDVGVYYCSQSTHVPWTFGQGTKVEIKRTVAAPSVFIFPPSDEQLKSGTASVVCLLNNFYPREAKVQWKVDNALQSGNSQESVTEQDSKDSTYSLSSTLTLSKADYEKHKVYACEVTHQGLSSPVTKSFNRGEC
notes: copies set to 2 on that ground; also called anti-hTfR antibody fusion BDNF; hBDNF-humanized anti-hTfR antibody fusion protein
As to B4, the “Erk phosphorylation activity (EC50, nmol/L)” value in assay [5] amounted to 0.02 nmol/L. The “BDNF activity” value in assay [2] came to 0.43 nmol/L. In addition, in assay [3], the Kd came to 0.00742 nM, the koff came out at 3.54e-06 s⁻¹ and the on-rate constant (kon) was 477000 M⁻¹ s⁻¹. In assay [4], the dissociation constant (Kd) was 0.794 nM, the off-rate (koff) came out at 0.000196 s⁻¹ and the kon was 245000 M⁻¹ s⁻¹.
